Measured values published in PMC7557104, “Population genetic and biophysical evidences reveal that purifying selection shapes the genetic landscape of Plasmodium falciparum RH ligands in Chhattisgarh and West Bengal, India” (Malaria Journal, 2020).
Changes are numbered by the printed parent chain.

What was measured:
[1] = target: T1, rPfRH5M, recombinant receptor binding fragment of PfRH5 encoded by the most prevalent haplotype rh5h1 (Y203) (Plasmodium falciparum, UniProt Q8IFM5 35-222, C203Y); assay: ITC; BSG injected drop by drop (1 min intervals) into the cell holding PfRH5_(3D7) or PfRH5M; BSG 10 times more concentrated than PfRH5; 25 °C; 0.1 M phosphate buffer, pH 7.0, Dulbecco PBS pH 7.4 in the reference cell (methods); PBS-BSG titration subtracted; fit to one set of binding sites; details: both partners purified
T1 construct: PfRH5, Plasmodium falciparum, field-isolate haplotype rh5h1, which differs from the Pf3D7 allele by C203Y; 188 aa, Glutamine-35 to Serine-222, amplified from DNA of an infected blood sample; Cloned BamHI/HindIII into pET-20b(+); also called PfRH5_(variant); Y203 allele; source: E. coli BL21 (DE3), purified (Ni-NTA)
T1 sequence (looked up): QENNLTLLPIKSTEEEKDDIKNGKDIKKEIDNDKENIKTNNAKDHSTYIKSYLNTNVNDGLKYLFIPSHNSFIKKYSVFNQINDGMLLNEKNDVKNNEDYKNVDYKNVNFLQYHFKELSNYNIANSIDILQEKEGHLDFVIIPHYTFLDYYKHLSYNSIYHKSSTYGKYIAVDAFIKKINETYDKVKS

[2] = target: T2, rPfRH5_(3D7), recombinant receptor binding fragment of P. falciparum reticulocyte binding protein-like … (Plasmodium falciparum, UniProt Q8IFM5 35-222); assay: as above; details: both partners purified
T2 construct: made by site-directed mutagenesis (Y203 to C) of the field-isolate clone rPfRH5M-pET-20b; Cloned BamHI/HindIII into pET-20b(+); also called C203 allele; source: E. coli BL21 (DE3), purified (Ni-NTA)
T2 sequence: T1 sequence (looked up) with Y169C

B1: basigin (BSG) (receptor)
chain: AAGTVFTTVEDLGSKILLTCSLNDSATEVTGHRWLKGGVVLKEDALPGQKTEFKVDSDDQWGEYSCVFLPEPMGTANIQLHGPPRVKAVKSSEHINEGETAMLVCKSESVPPVTDWAWYKITDSEDKALMNGSESRFFVSSSQGRSELHIENLNMEADPGQYRCNGTSSKGSDQAIITLRVRSHLAAL
Ka [1]: 3.63e+06 M⁻¹ | Ka [2]: 1.31e+06 M⁻¹
